The values below come from patent publication US20230365711A1 (Hoffmann-La Roche, published 2023).

B1: H4E9 x 2F1 (bivalent) (antibody, V domains shown)
VH: QVQLVQSGSELKKPGASVKVSCKASGYTFTEFGMNWVRQAPGQGLEWMGWINTKTGEATYIEEFKGRFVFSLDTSVSTAYLQISSLKAEDTAVYYCARWDFYDYVEAMDYWGQGTTVTVSS
VL: DIQMTQSPSSLSASVGDRVTITCKASAAVGTYVAWYQQKPGKAPKLLIYSASYRKRGVPSRFSGSGSGTDFTLTISSLQPEDFATYYCHQYYTYPLFTFGQGTKLEIKR
notes: bivalent form of the clone
B2: 1C8 x 2F1 (bivalent) (antibody, V domains shown)
VH: B1 VH with I61V, D103H
VL: DIQMTQSPSSLSASVGDRVTITCKASAAVGTYVAWYQQKPGKAPKLLIYSASYRKRGVPSRFSGSGSGTDFTLTISSLQPEDFATYYCHQYYTYPLFTFGQGTKLEIK
notes: bivalent form of the clone; copies: 2 + 2
B3: 1C8 x 3A1 (antibody, V domains shown)
VH: B1 VH with I61V, D103H
VL: B2 VL with A28N, T31N, Y32N, S50L, Y53N, K55S, R56G
notes: bivalent form
B4: H3 Full (5) 19 x 2F1 (bivalent) (antibody, V domains shown)
VH: B1 VH with N35S, I61V, F101A, Y102F, D103E, E106K, M108L
VL: B2 VL
notes: as for B2
B5: H4E9 x 3A1 (antibody, V domains shown)
VH: B1 VH
VL: B1 VL with A28N, T31N, Y32N, S50L, Y53N, K55S, R56G
notes: bivalent form
B6: 3A1 (bivalent) (antibody, V domains shown)
VH: B1 VH with I61V
VL: B2 VL with A28N, T31N, Y32N, S50L, Y53N, K55S, R56G
notes: bivalent form of the clone
B7: H3 Full (5) 8 x 2F1 (antibody, V domains shown)
VH: B1 VH with I61V, Y102F, D103E, V105F, E106K, A107T
VL: B2 VL
notes: bivalent form; copies: 2 + 2
B8: H3 Full (5) 8 (Fab, V domains shown)
VH: B1 VH with I61V, Y102F, D103E, V105F, E106K, A107T
VL: B2 VL with A27Q, A28N, Y32N, K55Y, R56S
B9: 1C8 x 2F1 (Fab, V domains shown)
VH: B1 VH with I61V, D103H
VL: B2 VL
notes: also called 1C8 x 2F1 hc/lc, monovalent; copies: 1 + 1
B10: anti-CEA antibody with heavy chain CH1A1G and light chain 2F1 (antibody, V domains shown)
VH: QVQLVQSGAEVKKPGASVKVSCKASGYTFTEFGMNWVRQAPGQGLEWMGWINTKTGEATYVEEFKGRVTMTTDTSTSTAYMEIRSLRSDDTAVYYCARWDFYDYVEAMDYWGQGTTVTVSS
VL: B1 VL
B11: anti-CEA antibody with heavy chain CH1A1E and light chain 2F1 (antibody, V domains shown)
VH: B10 VH with V68F, I83L
VL: B1 VL
B12: antibody with heavy chain CH7A (E102Q) and light chain 2F1 (antibody, V domains shown)
VH: B1 VH with I61V, E106Q
VL: B1 VL
notes: Bivalent form
B13: antibody with heavy chain CH7A (D99Y) and light chain 2F1 (antibody, V domains shown)
VH: B1 VH with I61V, D103Y
VL: B1 VL
notes: Bivalent form
B14: antibody with heavy chain CH7A (V101F) and light chain 2F1 (antibody, V domains shown)
VH: B1 VH with I61V, V105F
VL: B1 VL
notes: Bivalent form
B15: antibody with heavy chain CH7A (A103T) and light chain 2F1 (antibody, V domains shown)
VH: B1 VH with I61V, A107T
VL: B1 VL
notes: Bivalent form
B16: antibody with heavy chain CH7A (D99H) and light chain 2F1 (antibody, V domains shown)
VH: B1 VH with I61V, D103H
VL: B1 VL
notes: Bivalent form
B17: antibody with heavy chain CH7A (Y98A) and light chain 2F1 (antibody, V domains shown)
VH: B1 VH with I61V, Y102A
VL: B1 VL
notes: Bivalent form
B18: 2D7 (Fab, V domains shown)
VH: B1 VH with I61V, D103W
VL: B2 VL with A27Q, A28N, Y32N, K55Y, R56S
B19: H3 Full (5) 28 (Fab, V domains shown)
VH: B1 VH with I61V, Y102F, D103Y, E106Q, A107T
VL: B2 VL with A27Q, A28N, Y32N, K55Y, R56S
B20: 3E1 (Fab, V domains shown)
VH: B1 VH with I61V, Y102V
VL: B2 VL with A27Q, A28N, Y32N, K55Y, R56S
B21: H3 Full (5) 27 (Fab, V domains shown)
VH: B1 VH with I61V, Y102S, D103Y
VL: B2 VL with A27Q, A28N, Y32N, K55Y, R56S
B22: pAC23 (2F11) (Fab, V domains shown)
VH: B1 VH with I61V
VL: B2 VL with A27Q, A28I, V29A, G30S, Y32N, S50W, K55Y, R56S
B23: pAC19 (2C6) (Fab, V domains shown)
VH: B1 VH with I61V
VL: B2 VL with A27K, A28N, Y32N, L46P, S50L, R54P, K55Q, R56I
B24: L2D2 (Fab, V domains shown)
VH: B1 VH with I61V
VL: B2 VL with A27H, A28N, Y32N, Y53H, K55Y, R56S

Numbering of substitutions follows the chain as printed. Names may count otherwise.

One assay addresses T1, huNABA-avi-his (hybrid protein N-A1-B3-A2: N and A1 domains of human BGP, B3 domain of human CEA, A2 domain … (human, biotinylated at the avi tag (in vivo, co-transfected biotin ligase))).
T1 construct: also called NABA-avi-his reagent; biotinylated NABA
T1 chain: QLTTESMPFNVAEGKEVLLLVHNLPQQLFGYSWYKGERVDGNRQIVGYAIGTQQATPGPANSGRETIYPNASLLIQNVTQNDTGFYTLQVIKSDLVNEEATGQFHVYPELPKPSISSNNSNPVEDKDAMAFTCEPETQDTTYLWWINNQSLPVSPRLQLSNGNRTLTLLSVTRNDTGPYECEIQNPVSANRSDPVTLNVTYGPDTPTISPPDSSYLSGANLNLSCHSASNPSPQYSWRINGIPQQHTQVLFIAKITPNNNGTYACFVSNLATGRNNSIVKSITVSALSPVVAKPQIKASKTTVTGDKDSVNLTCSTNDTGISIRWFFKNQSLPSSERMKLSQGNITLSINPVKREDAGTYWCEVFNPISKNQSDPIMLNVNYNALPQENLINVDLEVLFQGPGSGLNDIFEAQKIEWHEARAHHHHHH
As to the kind of experiment: Biacore on immobilized NABA-avi-his; Bivalent Affinity. (Surface plasmon resonance follows binding to a sensor surface in real time, without labels.)
With B1, the Kd was determined as 0.452 nM; the koff (as a rule, a measure of how fast the partners let go of each other) amounted to 0.000191 s⁻¹; the kon – broadly, the second-order rate constant of association – came out at 423000 M⁻¹ s⁻¹.
Regarding B2, the Kd was determined as 0.66 nM, the koff stood at 0.000636 s⁻¹ and the kon worked out at 968000 M⁻¹ s⁻¹.
In the same order, the values of B3 are 0.888 nM, 0.000257 s⁻¹ and 289000 M⁻¹ s⁻¹.
In the same order, the values of B4 are 0.16 nM, 0.000284 s⁻¹ and 1.76e+06 M⁻¹ s⁻¹.
Taken in the same sequence, the figures for B5 were 0.55 nM, 0.000136 s⁻¹ and 246000 M⁻¹ s⁻¹.
B6 showed a Kd of 1.5 nM, a koff of 0.000364 s⁻¹ and an association rate constant (kon) of 242000 M⁻¹ s⁻¹.
In the same order, the values of B7 are 0.28 nM, 0.000271 s⁻¹ and 993000 M⁻¹ s⁻¹.

The target of a further assay is T1, huNABA-avi-his (hybrid protein …). As to the kind of experiment: Biacore, Fab on immobilized NABA-avi-his; column Monovalent Affinity.
Turning to B8, the Kd stood at 51 nM, the koff amounted to 0.0014 s⁻¹ and the kon was 27300 M⁻¹ s⁻¹.
In turn, B9 had a Kd of 128 nM, a koff of 0.0087 s⁻¹ and an association rate constant (kon) of 68100 M⁻¹ s⁻¹.

Another assay has the same target. The assay can be described thus: Proteon SPR, antibody analyte on biotinylated NABA (Neutravidin chip).
Turning to B10, the Kd was determined as 6.1 nM.
Same read-out and setting: in the case of B11 it was 20 nM.

For the next assay the target is unchanged. Described as above. The source holds these as a separate data set. An excerpt: (§1) Shown in FIG. 22 are Proteon (Biacore) sensorgrams obtained for the binding of the CDR-H3 antibody variants to the CEA antigen-harbouring chimeric protein NABA. […] The affinity matured precursor clone 5HFF12 and the parental antibody CH7A were included for direct comparison. All antibodies tested in this assay had 2F1 as the light chain. […] The relative affinity of each, measured in the bivalent form, is as follows: 5HFF12>CH7A (Y98A/D99Y)>CH7A (Y98A)>CH7A>CH7A (E102Q)>CH7A (D99Y)>CH7A (D99H)>CH7A (A103T)>CH7A (V101F)>CH7A (W95Y).
B12: the Kd was 1.63 nM.
Still for that read-out and setting: for B13 the value was 1.73 nM; for B14, 3.18 nM.
Still for that read-out and setting: for B15 the value was 2.87 nM.
The same measure, in the same setting: in the case of B16 it was 2.25 nM; in that of B17, 0.52 nM.

For another assay the target is unchanged. The assay can be described thus: Proteon SPR, antibody analyte on biotinylated NABA (Neutravidin chip); column Ka (M).
B10 displayed a kon of 73000 M⁻¹ s⁻¹.
With B11, the kon turned out to be 21100 M⁻¹ s⁻¹.

The next assay shares this target. The assay is described as above. This is another data set of the same source.
From the text: as §1
In the case of B12, the on-rate (kon) was 198000 M⁻¹ s⁻¹.
The same measure, in the same setting: for B13 the value was 114000 M⁻¹ s⁻¹; for B14, 59400 M⁻¹ s⁻¹.
On the same count and under the same terms, in the case of B15 it was 25100 M⁻¹ s⁻¹; in that of B16, 86500 M⁻¹ s⁻¹.
On the same count and under the same terms, for B17 the value was 132000 M⁻¹ s⁻¹.

The target is the same in another assay. As to the kind of experiment: Biacore, column Affinity, CDR-H3 rows; antigen not named on the sheet, NABA-avi-his per paragraph 230.
B18: the Kd is 746 nM.
On the same count and under the same terms, in the case of B19 it was 81 nM; in that of B8, 51 nM.
On the same count and under the same terms, for B20 the value was 1890 nM; for B21, 132 nM.

A further assay shares this target. As to the kind of experiment: Biacore, column Affinity, CDR-L1 and CDR-L2 rows; antigen not named on the sheet, NABA-avi-his per paragraph 230.
As to B22, the Kd turned out to be 290 nM.
On the same count and under the same terms, for B23 the value was 700 nM; for B24, 2260 nM.
